74 sequences from the supplement of paper PMC12636428 can be followed below.

The test system of the series is Saccharomyces cerevisiae. Briefly: transcriptional activation domain activity (GFP:mCherry ratio, weighted mean of sorted bins, harmonized to initial dataset scale) (arbitrary fluorescence ratio units); higher = stronger transcriptional activation. The conditions noted are these: beta-estradiol 1 µM; induction time 4 h. The essentials:
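Barcoded protein tiles fused to an estradiol-inducible synthetic transcription factor were integrated at the yeast URA3 locus, in diploids carrying a GFP reporter. Cultures were diluted 1:5 into SC with 1 uM beta-estradiol, held 4 hours at 30 °C, sorted into 8 bins by GFP:mCherry ratio, and barcodes sequenced. Tiles under 50 reads were discarded. Activation activity is the read-weighted mean of bin median fluorescence, averaged across barcodes, then linearly mapped onto the initial dataset scale.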

Regarding “PSGSPLTPSSGKGGRSASLGDAESNKTGEPYGPHSGKAYFEVCVNVGKHAIRL”, the “transcriptional activation domain activity” value was 37500.
As to “EAKKEGEHGAAPAGEHGAAPAAGGHGAEAKKEGEHGAAPAAGGHGAAPAAGGH”, the “transcriptional activation domain activity” value was 21300.
The value for “DRDRSRSRSRSRSKSPRRHRRSSRSPRRRGADKSPERAAPAASSKQAEARPRC” was 31100.
With “LRAIFLALLPVVYYFTYMLVLFLFLLTYYNPFSPFSHAVRPITPPLISIFSSF” the figure was 67800.
With “EKKERAAEPIAEITTEAAAEPKAAAEEATPKKDKKEKKSKKEKKTEESAVTSE” the figure was 34600; with “AHQRTTGASAEEKLALEVVLIMRNDLITHVIVYVLRSFLVYNAPLTGPLAEKL”, 55000.
In the case of “DYCSFNSFPPSHFMSLYKNLGSFFLLSSFPPPPFFFVLLYLPASCLCFFCLFF”, the “transcriptional activation domain activity” value worked out at 54500.
With “MCSIFLVFIVPPNPLSYLISFAFFFLFSFYLWCLLRRGLSYFALYAYLKYALL” the figure was 43700; with “MDSRPGSFATGVFRAQPVDNTPRKIQKRNRPPVSCLLCRTRKVKCNRQQPCER”, 33500.
Take “KAGCGYILGHINIFQPINWIFVVSAKVFPVDYVLFLLLVFFLFSASVVGVATV”: the “transcriptional activation domain activity” value came out at 32300.
“YIKGVVLALWILDTFGMCLIFHILYWYLITNYGNPLSITEPIWSIILHIMVTA”: the “transcriptional activation domain activity” value was 48500.
With “YNGYHKVGEHYLLCKAVVDHKKKSSIHVHLIEVQPTVFNILEGLLYPKILFSS” the figure was 53500.
The value for “DRHLDHGQLVYLLHSIVTCPRFQPMVRAIIVSRELPFFVQTWPWPYLSLLART” was 36100.
With “NIAQNMNQFRRQQVVYSPDTRKYSLLIREGRVGYPGVACMEIESTDPSLVVDK” the figure was 35000; with “WLLCQVPTRNLGVLVFDSSKRYHLVHPDSPTGEQRHTQFVIVLFIVAFIRGVA”, 47700.
For the sequence “AAKMAREYKKGERQAGRMRTEKGERGEEDGREREGTRRRREKEKEKNKEKGPR”, the “transcriptional activation domain activity” value stood at 46000.
In the case of “MCINMYFWKVFFMWTLIFFGLSYIPLSFPGMSYFFLLQHEIFLIILGNHFLRF”, the “transcriptional activation domain activity” value worked out at 42000.
The value for “SAHWILKAYYTDRRVLFGFCFGNEAFFMLIYLMEYLDGFCFYFVSFLALLAFP” was 57200; that for “NNTNNASPATSTVSLQLPNLPDQNSLTPNAQNNTVTLRKGFHVLLVEDDAVSI” was 23700.
With “LAILMDGLNRILLTHKDDIGIVARVMLAYMTAATRFKRLFISGGGYMLFMPAV” the figure was 59800; with “MLSQSGLPKVLGLASAFVYSWTPMILLACYTVGSLCFYLIIPSLLGEILWYIY”, 60100.
On to “MTWFTATLTVLYHLTHPIITIFRWLLLPLTPFYHLFSYIFSTLFLLPSLYIYF”, for which the “transcriptional activation domain activity” value was found to be 53100.
The value for “RRGSKGKQRASGNRGPGGSGGSRGWGQRTASHGKAGKGTGKRSGSNSGSHGES” was 37100; that for “KKRNAKRPKVESEGEDELADAKKEADDDEDESPKKVSKASSSPEAKVKQSSVS” was 26200; that for “VLGQISTVLIQYLFNPAYDLLSYCFNWYLDQCIVYLLLSIILSAPTIGAFVYV” was 46400.
With “LCPLFPPCFLVLHHILGFLYPRFFLFVFSLVDCLLYFSLSFLVCVRFCLCLGL” the figure was 78000; with “AAATATGAAPPGAPGEGPPKVKRGRKPKPKNLPPSDPNASTTATPGTSAPGSQ”, 32500; with “IEGPTLSDWFRIFERAFSLRELHWVYNYEDSYAMKPDRVIVLLNLWQLVAPNV”, 42800.
Turning to “IAAAAEQEEEDEASTSSTNTSNGDANARAHAHAHWESRRERELHADHRGGAGG”, the “transcriptional activation domain activity” value worked out at 31600.
On to “KSTARDTSAEVSSTKKRARSKAKKGDSDVEEDSDRGRSKTAKKSRKSTGAKSS”, for which the “transcriptional activation domain activity” value was found to be 12800.
With “AKMSVRPTVFGLNYIQLVAKLRLSLEDVRVEYLIYAAQILVLKDQFLRHEFHV”, the “transcriptional activation domain activity” value was 53000.
The value for “MPPRYIRYADRAVIENLSWYYWVFNPIMIGLYGPVRTIIDIYFRYFYNCILLF” was 40100; that for “IWDLWTFGGLDFWGLGFGIWDLGLGFGDWDFIYPPPLPVSVFFLLFLSFGVCW” was 56900.
With “YVDEENQSSNGAVRLWKRHFTLSGIMNRLLRKTVRRNTWIYISVSTLIVQIRR” the figure was 45700.
On to “FYPIGRRWQWYWGLWVCACALISLFSNIEVDRYYLQSLPITITIFFWYLMCMG”, for which the “transcriptional activation domain activity” value came out at 28200.
In the case of “DSATPHGSPRRWTPSSKLSPSVAPSSPSSSTSTSSSPKARSRSHSRTCSTEVQ”, the “transcriptional activation domain activity” value was found to be 42200.
With “ESKNKAEEETEEGEGARGEEEEEEKEEQGESDNEDANSAEADKTKSKQGKKQR” the figure was 31900.
Regarding “AAEVKQAKEETGEKAQKKEKKEKEKKAEAAEGGKKKEKAAGGGKPAAEEAAGE”, the “transcriptional activation domain activity” value came to 24500.
For “NPPIPVIPADVDRSKIPKCKHIGSRLRHFDDDLGYYLVQVCINLLQRIWKIFY”, the “transcriptional activation domain activity” value was 37200.
The value for “ESCDGSLWLCPFSQPVRPSLIKLVSRGIDRRRITSLLFMLWLVCWAVSLLFSK” was 59900; that for “HSSTAFSGYIDDPFNLNEILPLPASDFKLNTVTNLNEIDFTNIFTKSPHPHSG” was 136000; that for “SKIAWMILNIKYITQILTTIMRMHGQIEKNPLRPEVVPQFVGICRWIMQFMIY” was 55700.
With “GDEKKRNRERSREGGHRERSRSPDRERRSRRKRSHSRDRSSTRRRHKRHRSRS”, the “transcriptional activation domain activity” value was determined as 30400.
The value for “GMKNIDEGPETENDATENSLTTILNDLEGPLEDFSENFIDDILGSPSAFFDTA” was 151000.
The value for “YNGLPRFKWFISTVWVIYAGSCLLPFAGMVGTQILPLNRCIGVFKKPYPAILF” was 63300.
In the case of “CWILGFISVFTFAYLVLTVLPNLYLNCPYSTPLSELSWRLSQHLLLLILHLIR”, the “transcriptional activation domain activity” value worked out at 69500.
“ASSSAPAAEPEAAAEEAPKKEEAAPAKEEPAAATTATAAAAGESSEAPKEAAP”: the “transcriptional activation domain activity” value is 33900.
With “EEDSKVSVDVDRPAKRGRGRPPKPKDPNAPPPKPKSGRGRGRPPKAKPVEVAG” the figure was 39800; with “QQLGLWIFTWCACNFFLLFFVLKHSIHQKDINILIANVLDIWGLIDPQQILVK”, 61600; with “VEFLFPIYATVAFTTLGCISMFALPYAVLTILPNFYLNCPYGTPLSGVTWRLS”, 61600.
With “WLIKPEQNNGTWVADVLWPKLNLDLQWIASHWNQSSWDLWWPPVWGVLTGLPL” the figure was 67700.
With “KKDEEQTSSSTPSPPPQESAEKNEAKDEEKPAEQKAKKKPKKLQVRSAGTPAP” the figure was 7630; with “PAAGGFGATSTPAPAAGGFGGFGATAAAAKPAVGGFGGLGGGASAAPATTLTS”, 23300.
Take “MMKTLAQMYPLASFSLFQGLKFFILLALMNECLLLCTALRRWLICTQLPGIYF”: the “transcriptional activation domain activity” value turned out to be 49200.
As for “MLLLLPLHMLLQRHTLPNFFTFFSIIIIFLFLFSFFFFLFFFFLLFFLLLPGG”, the “transcriptional activation domain activity” value turned out to be 76400.
Regarding “YYYFNYFYFYYFYYYFIIIIIILFYLILFLFLFLLLLLFIYFYFYFNYFYYLF”, the “transcriptional activation domain activity” value amounted to 69700.
Regarding “RGYDIAKVSNSADLVSWVIAWLLCNNPHIVFIHFGFSYDILVLAAHALHILDC”, the “transcriptional activation domain activity” value came to 38500.
For the sequence “LEQHPKDRVKFSTPELVPLDLKNPELDSSFDLNMNLDLNLNLDSNFNIALNRS”, the “transcriptional activation domain activity” value amounted to 97100.
The value for “NGTPETHGESIDSKRPRACEACRGLKVKCEPDPTNPDGPCKRCTKANRNCVVT” was 25800; that for “PQQAQAQKEPKKPKPPPPPAAPPGPPPPPRAPPPPPPPPPPPPGGGGAPPPPA” was 27600; that for “VSYVLFVLMHRSTQPLVQHLLFKLRWLPFPFFITKHYYSWIISAYSFIGYRNL” was 56400.
With “CMELMLHYIYVVAISNSSPDWSAYTPFQLSMLGYFNLHHIWLKLLIPWRFFRL” the figure was 80500.
With “ELLLLWYIYFLGIQYAQDFCQYKKMLILTEDTMWGWDLYSFYNSIVFHGTGVP” the figure was 75000; with “LFLFIFLVAESYLGFSCWVLYSNVPLYAHVADLAGTKKPFVLPVPFMNVINGG”, 48000; with “PSDSRSRSRSRSASRKRGGAGRGGRSDSSDSEGDNSRRRQVSPARRRQRPARG”, 38300.
In the case of “GAAATPAKPLGFGATSTATTGGLFGNTGAAPAAGGGLFGATATSHQLLVLVAV”, the “transcriptional activation domain activity” value is 85800.
In the case of “RLWQLILCKLEHFHLGFFLLGSVNNIYFTYKILNDMFDIVLLGQDQQDNDDEL”, the “transcriptional activation domain activity” value was found to be 60000.
The value for “RTKDEMKCTSCNAPTSRVCARCKHTLYCSSEHQKKHWKQHRQACVPYGAQLVK” was 50600; that for “NTPPAKKKRDGKKKAAAAGDMGEGEGGGKKVRKPRKDAGTKRGPNKRTAGATG” was 41100.
With “CLRYSLLLVSLGLGAEGSPPFLILFPWTPILLARFYCIGWWVRFGFIFVRLWP”, the “transcriptional activation domain activity” value is 63200.
With “ADSRRKTRRVRKRKSSRRHQEEGEEEESESEEEEADARKRRKKEKGGGKDKKK” the figure was 23600.
On to “LHLFTNIDILKYDYGHIREDHIWVCLMHFTKRSRVVRWLVKSIYRPLLLGGLR”, for which the “transcriptional activation domain activity” value came out at 77200.
Consider “SVKHIITLFDDVRQNLAHAGLVALLLAQPHMIVLLTDVWLHMFRYLSAFEITI”, for which the “transcriptional activation domain activity” value turned out to be 52100.
For the sequence “IPSSQSRDIANDYDRGSTDNNLVTTTSTSSIFHDEDLTFFDRIPLNSNNNYYF”, the “transcriptional activation domain activity” value came to 102000.
